Here are results for 1 molecule from article PMC8100514.

For the experiment, the target named is β-tubulin, endogenous in HeLa cells (human (endogenous in HeLa)) (UniProt P07437). The experiment in a line: native gel or EMSA; soluble native extracts of HeLa cells treated with 5 uM colchicine for 60 min (30 ug) on 6% non-denaturing PAGE, western blot with anti-TBCA; level of the complex relative to control cells (100%). (In general: A gel shift assay detects complexes by their altered migration in electrophoresis.)
Chain of UniProt P07437 (P07437 whole entry): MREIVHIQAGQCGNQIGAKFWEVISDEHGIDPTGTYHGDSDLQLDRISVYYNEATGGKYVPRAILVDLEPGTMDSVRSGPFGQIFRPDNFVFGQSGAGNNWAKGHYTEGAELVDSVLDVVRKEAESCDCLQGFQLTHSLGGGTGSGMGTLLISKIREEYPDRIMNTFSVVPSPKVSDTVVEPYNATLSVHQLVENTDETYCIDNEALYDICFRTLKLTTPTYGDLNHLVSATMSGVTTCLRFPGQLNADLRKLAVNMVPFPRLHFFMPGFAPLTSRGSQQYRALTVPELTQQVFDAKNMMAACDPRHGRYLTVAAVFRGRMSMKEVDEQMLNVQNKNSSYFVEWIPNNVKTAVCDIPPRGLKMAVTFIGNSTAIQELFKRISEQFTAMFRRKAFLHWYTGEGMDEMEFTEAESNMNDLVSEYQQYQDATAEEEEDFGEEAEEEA

B1: tubulin cofactor A (TBCA), endogenous in HeLa cells (natural protein)
chain: MADPRVRQIKIKTGVVKRLVKEKVMYEKEAKQQEEKIEKMRAEDGENYDIKKQAEILQESRMMIPDCQRRLEAAYLDLQRILENEKDLEEAEEYKEARLVLDSVKLEA
Molecule B1 returned a level of the TBCA/β-tubulin complex, percent of control cells of 18%.
